B1: 14-3-3ζ dimer (natural protein)
chain: MDKNELVQKAKLAEQAERYDDMAACMKSVTEQGAELSNEERNLLSVAYKNVVGARRSSWRVVSSIEQKTEGAEKKQQMAREYREKIETELRDICNDVLSLLEKFLIPNASQAESKVFYLKMKGDYYRYLAEVAAGDDKKGIVDQSQQAYQEAFEISKKEMQPTHPIRLGLALNFSVFYYEILNSPEKACSLAKTAFDEAIAELDTLSEESYKDSTLIMQLLRDNLTLWTSDTQGDEAEAGEGGEN

Common to all, as to test: FP
The assay “14-3-3ζ dimer” addresses B1.
Assay [1] has as its target FAM-tagged PKCε pSer346 phosphopeptide (UniProt P16054, phosphoserine at 346; FAM label (end not stated)).
For assay [2], the target named is FAM-tagged PKCε pSer346/pSer350 phosphopeptide (UniProt P16054, phosphoserine at 346; phosphoserine at 350; FAM label (end not stated)).

Where no end group is shown, it is not given here. [ ]: non-standard residue; d: D form. pS = N[C@@H](COP(=O)(O)O)C(=O)O

Broadly, the Kd is the equilibrium constant for the complex coming apart. The low end stands for a tighter complex, the high end for a looser complex.

For DRSK[pS]APTSPCDQEIKELENNIRKAL[pS]FDNR (also: FAM label (end not given here)) [FAM-tagged PKCε pSer346/pSer368 phosphopeptide], in the assay with 14-3-3ζ dimer, binding was characterised by a dissociation constant (Kd) of 0.03 µM.

In the assay with 14-3-3ζ dimer, DRSK[pS]APT[pS]PCDQEIKELENNIRKAL[pS]FDNR (also: FAM label (end not given here)) [FAM-tagged PKCε pSer346/pSer350/pSer368 phosphopeptide] yielded an equilibrium dissociation constant (Kd) of 0.147 µM.

For the molecule B1, the dissociation constant Kd in assay [1] is 31.5 µM; in assay [2], 335 µM.

For the origin of these results see paper PMC8238520 (2021).
